According to paper PMC6411776 (2019):
“And” between values parts separate entries of the source, which are not always exact repeats. Identical values can stand only once.

Legend:
[1] = target: Cep63 full-length (FL); test: co-immunoprecipitation (IP: FLAG) and immunoblotting; conditions: transfected HEK293 cells; FLAG-Cep152 WT or 6A co-expressed with HA-Cep63; blot α-HA, long exposure; parent: 1.0
[2] = target: Cep152 full-length FL(1–1654) (human); test: co-IP; IP from a mixture of lysates from HEK293 cells transfected separately with each construct; with or without provision of HA-Cep63
[3] = target: Cep152 M4e(1205–1272); test: co-immunoprecipitation (IP: FLAG) and immunoblotting; conditions: transfected HEK293 cells; FLAG-Cep152 M4e co-expressed with GFP-Cep63 P1 and GFP-Cep152 M4e; blot α-GFP, M4e band; parent: 1.0
[4] = target: Cep63 P1(424–541), expressed in HEK293 cells; test: as above; conditions: transfected HEK293 cells; FLAG-Cep152 M4e co-expressed with GFP-Cep63 P1 and GFP-Cep152 M4e; blot α-GFP, P1 band; parent: 1.0
[5] = target: Cep63 full-length (FL) (human); test: co-IP; transfected HEK293 cells lysed in TBSN buffer [20 mM Tris-HCl (pH 8.0), 150 mM NaCl, 0.5% Nonidet P-40, 5 mM EGTA, 1.5 mM EDTA]; IP with anti-FLAG or anti-GFP antibody and protein A/G-agarose; immunoblotting
[6] = target: Cep152 M4e(1205–1272) (human); test: as above
[7] = target: Cep63 P1b(490–541) (human); test: as above
[8] = target: Cep152(1140–1295), from E. coli (human); test: SEC-MALS; Cep63(220–541)•Cep152(1140–1295) complex; Superdex 200 Increase 10/300 GL, 4 °C, 20 mM Tris-HCl (pH 8.0), 150 mM NaCl, 0.5 mM TCEP (the methods name the P1•M4d complex)
[9] = target: Cep152 M4d(1205–1295), from E. coli (human); test: AUC; sedimentation velocity, complex at 10 μM; 4 °C; 20 mM Tris (pH 7.5), 500 mM NaCl, 10 mM 2-mercaptoethanol, 0.5 mM TCEP, 5% glycerol
[10] = target: Cep152 M4e15(1205–1257), from E. coli (human); test: AUC; sedimentation velocity of the P1b5•M4e15 complex, 95 to 530 μM; 20 °C; 20 mM Tris (pH 7.5), 100 mM NaCl, 0.5 mM TCEP
[11] = target: Cep152 M4e15(1205–1257), from E. coli (human); test: SEC-MALS; decreasing concentrations of the P1b5•M4e15 complex; biphasic change of MW, estimated Kd values of two steps of dissociation of the heterotetramer
[12] = target: T1, Cep152 (Homo sapiens, UniProt O94986); test: SEC-MALS
T1 chain: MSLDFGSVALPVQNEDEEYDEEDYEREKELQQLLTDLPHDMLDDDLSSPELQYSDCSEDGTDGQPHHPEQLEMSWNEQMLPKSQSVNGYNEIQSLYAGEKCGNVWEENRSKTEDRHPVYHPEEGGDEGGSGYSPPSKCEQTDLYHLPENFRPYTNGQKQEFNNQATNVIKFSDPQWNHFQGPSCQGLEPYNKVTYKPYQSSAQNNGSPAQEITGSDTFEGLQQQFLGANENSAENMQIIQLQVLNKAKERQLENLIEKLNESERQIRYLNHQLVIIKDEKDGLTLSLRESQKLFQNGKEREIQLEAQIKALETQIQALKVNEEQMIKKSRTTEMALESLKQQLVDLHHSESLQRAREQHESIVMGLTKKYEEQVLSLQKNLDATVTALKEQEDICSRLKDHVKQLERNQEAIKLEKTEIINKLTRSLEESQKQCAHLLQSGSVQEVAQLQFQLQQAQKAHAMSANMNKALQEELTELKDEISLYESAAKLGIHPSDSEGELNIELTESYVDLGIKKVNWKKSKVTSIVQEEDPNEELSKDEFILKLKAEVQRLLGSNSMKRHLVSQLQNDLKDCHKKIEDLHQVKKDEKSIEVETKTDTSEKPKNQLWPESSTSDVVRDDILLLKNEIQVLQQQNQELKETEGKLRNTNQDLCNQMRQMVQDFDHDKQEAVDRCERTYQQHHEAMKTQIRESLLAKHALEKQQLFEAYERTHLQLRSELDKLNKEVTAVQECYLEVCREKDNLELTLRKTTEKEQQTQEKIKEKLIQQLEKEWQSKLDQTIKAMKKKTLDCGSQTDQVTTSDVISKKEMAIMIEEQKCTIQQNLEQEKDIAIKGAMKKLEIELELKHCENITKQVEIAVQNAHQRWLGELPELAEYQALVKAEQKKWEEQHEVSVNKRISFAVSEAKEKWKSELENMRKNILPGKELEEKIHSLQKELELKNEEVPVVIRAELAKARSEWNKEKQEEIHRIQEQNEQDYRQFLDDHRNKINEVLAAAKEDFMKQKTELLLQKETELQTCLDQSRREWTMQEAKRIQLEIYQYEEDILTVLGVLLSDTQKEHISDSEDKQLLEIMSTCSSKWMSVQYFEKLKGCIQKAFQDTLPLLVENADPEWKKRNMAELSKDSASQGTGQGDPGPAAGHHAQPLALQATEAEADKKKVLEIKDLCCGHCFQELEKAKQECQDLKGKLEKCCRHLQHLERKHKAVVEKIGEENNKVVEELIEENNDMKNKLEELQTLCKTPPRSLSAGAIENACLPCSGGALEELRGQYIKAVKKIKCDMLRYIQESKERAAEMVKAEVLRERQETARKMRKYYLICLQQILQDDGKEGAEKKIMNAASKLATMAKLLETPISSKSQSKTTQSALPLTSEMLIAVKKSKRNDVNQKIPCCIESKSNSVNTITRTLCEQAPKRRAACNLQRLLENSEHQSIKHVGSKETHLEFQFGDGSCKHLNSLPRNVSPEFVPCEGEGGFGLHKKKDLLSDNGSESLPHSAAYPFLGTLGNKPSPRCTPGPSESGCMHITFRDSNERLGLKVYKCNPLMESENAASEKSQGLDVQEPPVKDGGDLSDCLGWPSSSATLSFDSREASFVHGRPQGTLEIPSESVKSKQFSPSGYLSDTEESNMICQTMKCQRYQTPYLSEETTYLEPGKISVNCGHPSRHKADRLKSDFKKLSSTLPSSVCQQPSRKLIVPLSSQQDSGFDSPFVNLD

Molecule: Cep152 full-length FL(1–1654) L1207A; L1210A; Y1214A; I1221A; M1225A; Y1228A
- ratio to parent [1]: 0.1

Molecule: Cep152 full-length FL(1–1654) (natural protein)
- fold increase of the co-precipitate on provision of Cep63 [2]: 8 fold

Molecule: Cep152 M4e(1205–1272) 11A
- ratio to parent [3]: 0
- ratio to parent [4]: 0

Molecule: Cep63 full-length (FL) (natural protein)
- fold increase of the co-precipitate on provision of Cep152 [5]: 8 fold

Molecule: GFP-Cep63 P1b5(502–541) (domain or fragment)
- loss of co-precipitation against the P1b–M4e pair [6]: 40%

Molecule: Cep152 M4e(1205–1272) L1207A; L1210A; Y1214A; I1221A; M1225A; Y1228A
- ratio to parent [3]: 0.1
- ratio to parent [4]: 0

Molecule: GFP-Cep152 M4e13(1205–1260) (domain or fragment)
- loss of co-precipitation against the P1b–M4e pair [7]: 40%

Molecule: His-Cep63(220–541), from E. coli (domain or fragment)
- stoichiometry N (Cep63:Cep152 (printed as 2:2)) [8]: 1

Molecule: His-Cep63 P1(424–541), from E. coli (domain or fragment)
- stoichiometry N (Cep63:Cep152 (printed as 2:2)) [9]: 1

Molecule: His-Cep63 P1b5(502–541), from E. coli (pKM5500) (domain or fragment)
- stoichiometry N (Cep63:Cep152 (printed as 2:2)) [10]: 1
- Kd of one of two steps of dissociation of the 2:2 heterotetramer (step not assigned) [11]: 60 µM

Molecule: Cep152 M4e(1205–1272) 5A
- ratio to parent [3]: 0.7
- ratio to parent [4]: 0.9

B1: Cep63 (protein)
chain: MEALLEGIQNRGHGGGFLTSCEAELQELMKQIDIMVAHKKSEWEGRTHALETCLKIREQELKSLRSQLDVTHKEVGMLHQQVEEHEKIKQEMTMEYKQELKKLHEELCILKRSYEKLQKKQMREFRGNTKNHREDRSEIERLTAKIEEFRQKSLDWEKQRLIYQQQVSSLEAQRKALAEQSEIIQAQLVNRKQKLESVELSSQSEIQHLSSKLERANDTICANELEIERLTMRVNDLVGTSMTVLQEQQQKEEKLRESEKLLEALQEEKRELKAALQSQENLIHEARIQKEKLQEKVKATNTQHAVEAIRPREESLAEKKYTSQGQGDLDSVLSQLNFTHTSEDLLQAEVTCLEGSLESVSATCKQLSQELMEKYEELKRMEAHNNEYKAEIKKLKEQILQGEQSYSSALEGMKMEISHLTQELHQRDITIASTKGSSSDMEKRLRAEMQKAEDKAVEHKEILDQLESLKLENRHLSEMVMKLELGLHEAKEISLADLQENYIEALNKLVSENQQLQKDLMNTKSQLEISTQMCKKQNDRIFKPTHSRTTEFKNTEFKPTHGQHRHDGIKTEHYKTDLHSPRGQASDSINPMSRVLSPLSPQISPCSSTRSLTSYSLCKTHSLPSALDTNEANFSDTMSESMNDQEEFISSCSLPVSPLGSIATRFLEEEELRSHHILERLDAHIEELKRESEKTVRQFTALK
- Kd [12]: ~60 µM and ~117 µM
